Experimental data reported in article PMC3504009 (PLoS ONE, 2012).

Biological target: T1, YscUCC, C-terminal polypeptide of the cleaved cytosolic domain YscUC of YscU, wild type (Y. pseudotuberculosis, UniProt P69987 264-354)
T1 sequence: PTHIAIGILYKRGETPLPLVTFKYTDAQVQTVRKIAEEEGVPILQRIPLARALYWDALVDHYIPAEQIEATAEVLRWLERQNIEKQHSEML
Test: circular dichroism, dissociation kinetics
Conditions: both partners purified

B1: YscUCN, N-terminal cytoplasmic polypeptide of the cleaved cytosolic domain YscUC of YscU (domain or fragment)
chain: IKELKMSKDEIKREYKEMEGSPEIKSKRRQFHQEIQSRNMRENVKRSSVVVAN
- binding result: binds
